According to patent US20250170267A1, “ANTIBODY-DRUG CONJUGATE PRECURSOR AND INTERMEDIATE FOR SYNTHESIS THEREOF” (UBE Corporation, priority 2022, published 2025):
Numbered stars: 1 amine (or outer) side, 2 acyl side, 3 side chain; on linkers, the order of the positions; unused ones are H or OH. Square brackets hold non-standard residues; d marks the D form. Peptide text beside a SMILES is read from it. * marks the point of attachment. Dolaproine = CO[C@@H]([C@@H]1CCCN1)[C@@H](C)C(=O)O; Propanoyl(3-maleimido) = O=C1C=CC(=O)N1CCC(=O)*; Dil = CC[C@H](C)[C@H](NC)[C@@H](CC(=O)O)OC; PABC = O=C(OCc1ccc(N[*:1])cc1)[*:2]; X1 = C[C@@H](N*)[C@@H](O)c1ccccc1; hSer(lactone) = O=C1OCC[C@@H]1N*; Cit = NC(=O)NCCC[C@H](N)C(=O)O; PEG4 = NCCOCCOCCOCCOCCC(=O)O; NMeV = CN[C@H](C(=O)O)C(C)C

Experiments:
human liver lysosome = assay: Metabolism test using human liver lysosomal fraction; assay type: in vitro ADME; conditions: 37° C., 24 hours, released drug, LC-MS/MS
Experimental: To a reaction composition solution (X10 Catabolic Buffer (manufactured by SEKISUI-Xenotech, LLC., K5200))(60 μL) in which human liver lysosome (manufactured by SEKISUI-Xenotech, LLC., Cat No. H610.L 2.5 mg/mL)(corresponding to 0.125 mg of protein) was suspended and distilled water (manufactured by FUJIFILM Wako Pure Chemical Corporation, for HPLC)(10 μL) was added 1.2 μM test compound (antibody-drug conjugate produced in ADC Production examples)(25 μL) dissolved in PBS to prepare a reaction solution. After the reaction solution was incubated at 37° C. for 24 hours, “an antitumor drug molecule or an analog thereof, or a derivative thereof” released from the antibody-drug conjugate into the reaction solution was quantified by LC-MS/MS (high performance liquid chromatography/mass spectrometer system) under the following conditions. LC-MS/MS analysis conditions
(§1) LC: LC20 or LC30 HPLC system manufactured by Shimadzu Corporation
(§2) Column: Phenomenex Kinetex C18 (50×2.1 mm, 2.6 μm)
(§3) Column temperature: 40° C.
(§4) Mobile phase A: 0.1% aqueous solution of formic acid, Mobile phase B: 0.1% solution of formic acid in a mixture of 50% acetonitrile/methanol
(§5) Mode: Positive or Negative
(§6) The release rate (%) of drug was calculated by the following equation.

human liver Cathepsin B = target: T1, human liver Cathepsin B (Homo sapiens, UniProt P07858); assay: Metabolism test using human liver Cathepsin B; assay type: in vitro ADME; conditions: 37° C., 24 hours, released drug, LC-MS/MS
T1 construct: human liver Cathepsin B (manufactured by Sigma-Aldrich Co. LLC, Cat No. C8571 25 μg/vial); purchased Sigma-Aldrich Co. LLC C8571; host or cells: human liver
Experimental: To human liver Cathepsin B (manufactured by Sigma-Aldrich Co. LLC, Cat No. C8571 25 μg/vial)(corresponding to 400 Unit/mL)(5 μL), X10 Catabolic Buffer (manufactured by SEKISUI-Xenotech, LLC., K5200)(10 μL), 2.5 mM Bovine Serum Albumin (manufactured by FUJIFILM Wako Pure Chemical Corporation, Cat No. 012-15093)(5 μL), and distilled water (manufactured by FUJIFILM Wako Pure Chemical Corporation, for HPLC)(55 μL) was added 1.2 μM test compound (antibody-drug conjugate prepared in ADC Production examples)(25 μL) dissolved in PBS to prepare a reaction solution. After the reaction solution was incubated at 37° C. for 24 hours, “an antitumor drug molecule or an analog thereof, or a derivative thereof” released from the antibody-drug conjugate into the reaction solution was quantified by LC-MS/MS (high performance liquid chromatography/mass spectrometer system) under the following conditions. LC-MS/MS analysis conditions
as §1, §2, §3, §4, §5, §6

[1] = Pharmacokinetic test (serum trastuzumab residual rate); assay type: in vivo; conditions: female BALB/c mouse, intravenous; 3 days vs 5 minutes after administration
Description: After a prescribed time period, the blood was collected from the jugular vein or abdominal vein, and centrifuged to prepare a serum. The resulting serum was cryopreserved until the measurement.

[2] = Retention time in HPLC (index of hydrophilicity); assay type: physicochemical; conditions: BEH C18, 0.1% formic acid/acetonitrile gradient, 40° C.
Experimental: As an index of hydrophilicity of the Examples, the retention time (RT) in HPLC analysis was measured, and compared.
Device: LCMS2020 system Shimadzu Corporation
Column: Acquity UPLC (registered trademark) BEH C18 (2.1×50 mm, 1.7 μm)_Waters
Eluent: Solution A: 0.1% aqueous solution of formic acid, Solution B: 0.1% solution of formic acid in acetonitrile

Structure (SMILES)	Release rate (%) of drug from ADC (human liver lysosome) [%]	Release rate (%) of drug from ADC (human liver Cathepsin B) [%]	Serum trastuzumab residual rate after 3 days from administration (%) [1] [%]	Retention time in HPLC measurement ([2]; Table 6 (eribulin precursors)) [min]	Retention time in HPLC measurement ([2]; Table 5 (MMAE-type precursors)) [min]
C=C1C[C@@H]2CC[C@@]34C[C@H]5O[C@H]6[C@@H](O3)[C@H]3O[C@H](CC[C@@H]3O[C@H]6[C@H]5O4)CC(=O)C[C@@H]3[C@@H](OC)[C@@H](C[C@H](O)CNC(=O)OCc4ccc(NC(=O)[C@H](CCCNC(N)=O)NC(=O)[C@@H](NC(=O)[C@H](CC(=O)N[C@H]5CCOC5=O)NC(=O)CN(C)CCNC(=O)CCOCCOCCOCCOCCNC(=O)[C@H](CNC(=O)CCP(=O)(O)O)N5C(=O)C=CC5=O)C(C)C)cc4)O[C@H]3C[C@H]3O[C@@H](CC[C@@H]1O2)C[C@@H](C)C3=C [Example 16]	72	62	64	0.97	–
CC[C@H](C)[C@@H]([C@@H](CC(=O)N1CCC[C@H]1[C@H](OC)[C@@H](C)C(=O)N[C@H](C)[C@@H](O)c1ccccc1)OC)N(C)C(=O)[C@@H](NC(=O)[C@H](C(C)C)N(C)C(=O)OCc1ccc(NC(=O)[C@H](CCCNC(N)=O)NC(=O)[C@@H](NC(=O)[C@H](CC(=O)N[C@H]2CCOC2=O)NC(=O)CCOCCOCCOCCOCCNC(=O)CCN2C(=O)C=CC2=O)C(C)C)cc1)C(C)C [Example 1] ({Propanoyl(3-maleimido)-PEG4}-D(hSer(lactone))V[Cit][PABC][NMeV]V[Dil][Dolaproine]-X1)	68	71	35	–	1.12
